Measurements reported in publication PMC11826091.

Experiments:
[1] = test system: T1, MtvA (Pseudomonas aeruginosa PAD8 (plasmid pPAD8)), ORF:f8ca6192; test: EMSA; conditions: pH 8.0, 25 min at room temperature
T1 sequence: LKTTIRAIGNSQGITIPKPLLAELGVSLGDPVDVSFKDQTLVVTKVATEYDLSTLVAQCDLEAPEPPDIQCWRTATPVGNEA

[2] = test system: MtvA;MtvT (Pseudomonas aeruginosa PAD8 (plasmid pPAD8);Pseudomonas aeruginosa PAD8 (plasmid pPAD8)), ORF:f8ca6192+ORF:03226125; test: EMSA; conditions: pH 8.0, 25 min at room temperature

Sequence	binding [1]	binding [2]
CGGAAAACCTTAGACCCACTGAAGACCCGGCGTTCGCCGGGTTTTTTGTGTCTGCTCTTGTAAGCATTAACTTACACGGCGTGTGAGCCTAAGTAGATAAATGCCCGGGAGGTTTGCCAAAAACGCTCGGTGAATTTAAGTAACTTATTGAAATTAAAGGAATATATTTTTCTAAAATGGCTGCCGAAGAAGCTTCGCTGGGTTTTCTGGCAGGTTGCGGGAGCACTGGGAATCGCTAATATCACTCCTG (double strand) [P-rsmZ]	binds	binds
GCCGTCTCCGCGCGGGAGGAAAAGGCCACAGCGATGTGGCTTTTTTCTTAAAAGAAAAGTCTCTCAGTGACAAAAGCGATGCATAGCCCGGTGCTAGCATGCGCTGAGCTTTAGGAGGCGCCCCC (double strand) [P-exsC]	no binding	no binding
GCTGGGAAGGCTCGCGATGATGAGGGGACTGGCCACTGTAGCGGGCCCGGCGCAGATCATCTTGACGCACGGCAAGCTCCCGGCGGCTGGGTGTTGCCGTCGGTCCGGCGAGCGGAACTATTACAGCGTGTAAGCCAAGGCTTACAAACGGCGGTGGTTTTGGCTGCTTTCTCCCCCTCGCAGAGATGCGTAATCTTCAAACCGTCAGGACATTGCGCAGG (double strand) [P-rsmY]	binds	binds
GTACGATCATCTTCACTTCCTCCAAATAGGAAGCTGAAGAATTTATGCAAATTTCATAATTTTATAACTAGCAAATGAGATAGATTTCGGTGAACCCGGACCCTTGCTAGGCTCGAAGAAACGTCCGAAAAGATCAGAGCA (double strand) [P-lasI]	no binding	no binding
TATGGATCCCGTATCTGCTCGGTTGGTTGATGGACAAAGCGCTTATCAAAAGGAAAACAACGCTTTGGCGCACGACTATACAGCAACGAAAGTCGAACGATAAGGCAATGATAGTCAGAAGTGACCCACCACTCAACACCAACCCACGCCCATATAGGTCTACGGTGACCTAAAACCTCGCTCGCCCTCCAAATAGGTCACCTGTGACCCTCGAGTAA (double strand) [P-dotD]	binds	binds
TTACTCGAGAAGTTTGGAATAACCAGAGATATGCTCGTCAACAACGAATGTTTGAACATATTTATCGGAACTTATTACATTCAGCGTAGCGTGCTGGGGAGTGATGATTTTTGGAAGGGCGTTGGTAATTACCACTCTCGCACGCCCGACAAAAACTACCGGTACAAACATCGTGTGTGGAACAGTCTCAAAGAAGTCCGGGGGCAGCAGGATCCATA (double strand) [P-icmP]	binds	binds
TTACTCGAGTGATGGCGATCGCCGCCGACGATGCTTCGTTTGATCACAGCTGCGTGGTCAACTTCAAATCGGCCGCCTGAGGGCGGCCCTACCCATAGATCCTGATTCCTCAACAAGAAAAAGCGACGTGTCCATTCGTTGACACTAAAGGTATTTTTGCGTATTTTTCGACATTATCATCTAATGAAAGTCGTTGGGGTTTGTTCGGTGGATCCATA (double strand) [P-icmL]	binds	binds
